These results are taken from patent US20160208233A1 (Harvard, published 2016).

Series [1] has as its target T1, eSrtA displayed on ICY200 yeast as a C-terminal Aga2p fusion (Staphylococcus aureus, UniProt Q2FV99 60-206).
T1 construct: the whole entry is named here; also called Yeast displaying eSrtA; S. cerevisiae displaying eSrtA; not shown: Aga2p, yeast display anchor
T1 chain: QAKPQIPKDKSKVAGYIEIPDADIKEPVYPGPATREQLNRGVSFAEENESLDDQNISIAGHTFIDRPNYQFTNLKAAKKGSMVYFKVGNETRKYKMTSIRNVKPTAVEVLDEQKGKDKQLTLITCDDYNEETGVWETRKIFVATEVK
Nature of the series: yeast-displayed eSrtA, 10 µM Btn-LAETGG against 100 nM to 1 mM LPETGG, cell biotinylation by flow cytometry.

The target in another series is T2, Abz-LPETGK(Dnp)-CONH2.
T2 chain: LPETGK

The target of a further series is T3, Abz-LPECGK(Dnp)-CONH2.
T3 chain: LPECGK

A further series addresses T4, Gly-Gly-Gly-COOH.
T4 chain: GGG

In series [2] the target is T5, Abz-LPESGK(Dnp)-CONH2.
T5 chain: LPESGK

The target in the next series is T6, Abz-LSETGK(Dnp)-CONH2.
T6 chain: LSETGK

The target in series [3] is T7, human fetuin A, endogenous in human plasma, P02765.
T7 chain: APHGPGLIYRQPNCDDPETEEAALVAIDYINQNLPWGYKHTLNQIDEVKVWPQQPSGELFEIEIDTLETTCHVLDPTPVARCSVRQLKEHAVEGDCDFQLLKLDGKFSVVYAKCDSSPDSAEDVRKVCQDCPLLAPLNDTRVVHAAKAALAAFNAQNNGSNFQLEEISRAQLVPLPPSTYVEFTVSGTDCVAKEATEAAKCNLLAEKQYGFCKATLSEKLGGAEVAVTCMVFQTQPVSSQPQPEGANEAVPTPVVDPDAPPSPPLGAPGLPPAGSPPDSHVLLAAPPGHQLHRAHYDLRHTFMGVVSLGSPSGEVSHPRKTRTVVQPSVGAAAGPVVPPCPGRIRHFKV

A further series deals with T8, Abz-LPEAGK(Dnp)-CONH2.
T8 chain: LPEAGK

The target in another series is T9, Abz-LAETGK(Dnp)-CONH2.
T9 chain: LAETGK

Series [4] has as its target T10, Abz-LPESGK(Dnp)-CONH2 (N-terminus assumed; SMILES CC(C)C[C@H](NC(=O)c1ccccc1N)C(=O)N1CCC[C@H]1C(=O)N[C@@H](CCC(=O)O)C(=O)N[C@@H](CO)C(=O)NCC(=O)N[C@@H](CCCCNc1ccc([N+](=O)[O-])cc1[N+](=O)[O-])C(N)=O).
T10 peptide: [2Abz]LPESGK(Dnp)-NH2
Nature of the series: cell-based or functional assay.

Non-standard residues stand in square brackets, D forms with d. No end group written: not given here. *: point of attachment. Dnp = O=[N+]([O-])c1ccc(*)c([N+](=O)[O-])c1; 2Abz = Nc1ccccc1C(=O)O

In [1], LPETGG [non-biotinylated LPETGG peptide] came in with a Ki below 100 µM.

B1: evolved sortase A (eSrtA) (enzyme)
chain: T1 chain
For B1, in the series with Abz-LPETGK(Dnp)-CONH2, the Michaelis constant (Km) turned out to be 230 µM; the Km, LxExG is 208 µM; the specificity constant (kcat/Km) amounted to 23000 M⁻¹ s⁻¹; the kcat/Km (Hz/M) came out at 27100 Hz/M. The molecule also came in with a specificity (relative cat. Efficiency, fold), LPETG over LAETG with Abz-LPETGK(Dnp)-CONH2 of 123 fold. Besides, in the series with Abz-LPECGK(Dnp)-CONH2, the Km turned out to be 72.5 µM and the kcat/Km was found to be 48800 M⁻¹ s⁻¹. For the same molecule, in the series with Gly-Gly-Gly-COOH, the Km, GGG (uM); with LPETG peptide stood at 2990 µM; the Km,GGG (µM); listed substrate LAETG was found to be 807 µM; the Km,GGG (µM); listed substrate LPEAG was 48400 µM; the Km,GGG (µM); listed substrate LPECG was 57000 µM. Besides, in the series with Gly-Gly-Gly-COOH, the Km,GGG (µM); listed substrate LPESG worked out at 22000 µM, the Km,GGG (µM); listed substrate LPETG turned out to be 1620 µM and the Km,GGG (µM); listed substrate LSETG worked out at 337 µM. Besides, in the series with Abz-LPESGK(Dnp)-CONH2 [2], the Km amounted to 318 µM; the Km, LxExG came out at 672 µM; the Rel. Activity (fold below the enzyme's best substrate, LPETG) was determined as 4.9 fold; the kcat/Km stood at 4650 M⁻¹ s⁻¹. Moreover, in the series with Abz-LPESGK(Dnp)-CONH2 [2], the kcat/Km (Hz/M) was 2650 Hz/M. In the series with Abz-LSETGK(Dnp)-CONH2, the Michaelis-Menten constant (Km) was determined as 533 µM and the kcat/Km worked out at 192 M⁻¹ s⁻¹. Also, in series [3], the “conjugation efficiency in human plasma, with supplemental calcium (densitometry)” value is recorded as 0.6% by eSrtA in the presence supplemental calcium; the “fetuin A conjugation efficiency with 10 mM added CaCl2, against eSrtA(4S-9)” value is listed as “only modest fetuin A conjugation efficiencies (90-fold lower than that of eSrtA(4S-9)) in the presence of 10 mM added CaCl2”; the “processing of fetuin A in human plasma without supplemental calcium” value was “eSrtA showed no processing of fetuin A without supplemental calcium”. Moreover, in the series with Abz-LPEAGK(Dnp)-CONH2, the Km was 83.4 µM and the kcat/Km is 8900 M⁻¹ s⁻¹. In addition, in the series with Abz-LAETGK(Dnp)-CONH2, the Km stood at 6070 µM; the Km, LxExG was determined as 6160 µM; the Rel. Activity (fold below the enzyme's best substrate, LPETG) was determined as 103 fold; the kcat/Km was determined as 223 M⁻¹ s⁻¹. Also, the kcat/Km (Hz/M) with Abz-LAETGK(Dnp)-CONH2 came to 221 Hz/M. The “specificity (relative cat. Efficiency, fold), by the kcat/Km cells LPETG over LPESG” value with Abz-LPESGK(Dnp)-CONH2 [4] is 10.2 fold.
